# Reference: US20200330553A1 (BRIGHAM AND WOMEN S HOSPITAL, published 2020)
# B1: FLAG-sortilin full-length (Full) (receptor)
# chain: SAPDYKDDDDKGEDEECGRVRDFVAKLANNTHQHVFDDLRGSVSLSWVGDSTGVILVLTTFHVPLVIMTFGQSKLYRSEDYGKNFKDITDLINNTFIRTEFGMAIGPENSGKVVLTAEVSGGSRGGRIFRSSDFAKNFVQTDLPFHPLTQMMYSPQNSDYLLALSTENGLWVSKNFGGKWEEIHKAVCLAKWGSDNTIFFTTYANGSCKADLGALELWRTSDLGKSFKTIGVKIYSFGLGGRFLFASVMADKDTTRRIHVSTDQGDTWSMAQLPSVGQEQFYSILAANDDMVFMHVDEPGDTGFGTIFTSDDRGIVYSKSLDRHLYTTTGGETDFTNVTSLRGVYITSVLSEDNSIQTMITFDQGGRWTHLRKPENSECDATAKNKNECSLHIHASYSISQKLNVPMAPLSEPNAVGIVIAHGSVGDAISVMVPDVYISDDGGYSWTKMLEGPHYYTILDSGGIIVAIEHSSRPINVIKFSTDEGQCWQTYTFTRDPIYFTGLASEPGARSMNISIWGFTESFLTSQWVSYTIDFKDILERNCEEKDYTIWLAHSTDPEDYEDGCILGYKEQFLRLRKSSMCQNGRDYVVTKQPSICLCSLEDFLCDFGYYRPENDSKCVEQPELKGHDLEFCLYGREEHLTTNGYRKIPGDKCQGGVNPVREVKDLKKKCTSNFLSPEKQNSKSNSVPIILAIVGLMLVTVVAGVLIVKKYVCGGRFLVHRYSVLQQHAEANGVDGVDALDTASHTNKSGYHDDSDEDLLE
# notes: signal peptide 1-33 is implied by that; Expressed in HEK293 cells; also called FLAG-sortilin WT; FLAG-sortilin wild-type
# What was measured:
# [1] = target: B1; test: TR-FRET and HTRF on HEK293 cells, anti-FLAG(M2)-Cryptate and anti-6HIS-XL665
# Protocol: TR-FRET and HTRF were performed as described (26). FLAG-sortilin Full HEK293 cells were harvested using dissociation solution (e.g., from Sigma Aldrich, Cat#C5914) 24 hours after transfection of 6×His-sortilin expression vector. An incubation under the circle rotator was performed at 4° C. with 1×10^6 cells/mL for TR-FRET and 2×10^6 cells/mL for HTRF containing 1 nmol/L Anti-FLAG® (M2)-Cryptate (Cisbio Bioassays, Cat#61FG2KLA, Lot#25A) and 3 nmol/L Anti-6HIS-XL665 (Cisbio Bioassays, Cat#61HISXLA, Lot#56A) in PBS supplemented with 25% FBS. For TR-FRET, cells were centrifuged at 1,000 rpm for 5 min to remove the antibodies, and resuspended in PBS, and applied into a 96-well white plate. For HTRF, cells were applied without removing the antibodies into a 96-well white plate. Then, the plate was read (excitation: 320 nm, emission: 620 nm (cutoff 570 nm), 665 nm (cutoff 630 nm), Delay […], Integration […]). The FRET signal was calculated as (the ratio of counts per seconds 665:620)×10,000, and % change of the FRET signal by 6×His-sortilin expression was expressed.
# [2] = target: the molecule itself; test: non-reducing western blot, HEK293 cells
# [3] = target: the molecule itself; test: non-reducing western blot; BS3 cross-linking, HEK293 cells
# Description: In reducing western blotting, protein expressions of FLAG-sortilin Full, ECD+TMD and ICD+TMD were detected as bands of plausible molecular size (FIG. 2B). In non-reducing western blotting where disulfide bonds can be retained, FLAG-sortilin Full and ECD+TMD expressed a couple of bands (FIG. 2C). A band of 75-100 kDa was detected as monomers (FIG. 2C). Bands of approximately 200 kDa and higher molecular weight were detected as homodimers and multimers with intermolecular disulfide bonds (FIG. 2C). Next, FLAG-sortilin Full and ECD+TMD were cross-linked using water-soluble, non-cleavable cross-linker, BS3, in HEK293 cells. Both bands of homodimers and multimers appeared via the cross-linking (FIG. 2D). […] Dimerization of FLAG-sortilin ICD+TMD was not clearly detected in the non-reducing western blotting using whole cell lysate (FIG. 2C) potentially due to low protein expression levels of FLAG-sortilin ICD+TMD (FIGS. 2B, 2C). […] Therefore, it was determined whether FLAG-sortilin ICD+TMD can undergo degradation in proteasome and lysosome by adding proteasome inhibitor, MG-132, and lysosome inhibitor, chloroquine, to FLAG-sortilin ICD+TMD HEK293 cells, respectively. […] In non-reducing western blotting, bands with molecular size approximately twice as high as monomers of FLAG-sortilin ICD+TMD were detected (FIG. 2G). […]
Binder,binding result [2],binding result [3],further results
"6×His-sortilin full-length (Full) (receptor, 6×His inserted after Ser78-Ala79-Pro80; Written as the form after propeptide cleavage; also called 6×His-sortilin WT; 6×His-sortilin wild-type) SAPHHHHHHGEDEECGRVRDFVAKLANNTHQHVFDDLRGSVSLSWVGDSTGVILVLTTFHVPLVIMTFGQSKLYRSEDYGKNFKDITDLINNTFIRTEFGMAIGPENSGKVVLTAEVSGGSRGGRIFRSSDFAKNFVQTDLPFHPLTQMMYSPQNSDYLLALSTENGLWVSKNFGGKWEEIHKAVCLAKWGSDNTIFFTTYANGSCKADLGALELWRTSDLGKSFKTIGVKIYSFGLGGRFLFASVMADKDTTRRIHVSTDQGDTWSMAQLPSVGQEQFYSILAANDDMVFMHVDEPGDTGFGTIFTSDDRGIVYSKSLDRHLYTTTGGETDFTNVTSLRGVYITSVLSEDNSIQTMITFDQGGRWTHLRKPENSECDATAKNKNECSLHIHASYSISQKLNVPMAPLSEPNAVGIVIAHGSVGDAISVMVPDVYISDDGGYSWTKMLEGPHYYTILDSGGIIVAIEHSSRPINVIKFSTDEGQCWQTYTFTRDPIYFTGLASEPGARSMNISIWGFTESFLTSQWVSYTIDFKDILERNCEEKDYTIWLAHSTDPEDYEDGCILGYKEQFLRLRKSSMCQNGRDYVVTKQPSICLCSLEDFLCDFGYYRPENDSKCVEQPELKGHDLEFCLYGREEHLTTNGYRKIPGDKCQGGVNPVREVKDLKKKCTSNFLSPEKQNSKSNSVPIILAIVGLMLVTVVAGVLIVKKYVCGGRFLVHRYSVLQQHAEANGVDGVDALDTASHTNKSGYHDDSDEDLLE",,,binding result [1]: binds
6×His-sortilin ICD+TMD C783A (receptor) SAPHHHHHHNSVPIILAIVGLMLVTVVAGVLIVKKYVAGGRFLVHRYSVLQQHAEANGVDGVDALDTASHTNKSGYHDDSDEDLLE,no binding,,
B1,,binds,
FLAG-sortilin S316E (receptor) SAPDYKDDDDKGEDEECGRVRDFVAKLANNTHQHVFDDLRGSVSLSWVGDSTGVILVLTTFHVPLVIMTFGQSKLYRSEDYGKNFKDITDLINNTFIRTEFGMAIGPENSGKVVLTAEVSGGSRGGRIFRSSDFAKNFVQTDLPFHPLTQMMYSPQNSDYLLALSTENGLWVSKNFGGKWEEIHKAVCLAKWGSDNTIFFTTYANGSCKADLGALELWRTSDLGKSFKTIGVKIYSFGLGGRFLFAEVMADKDTTRRIHVSTDQGDTWSMAQLPSVGQEQFYSILAANDDMVFMHVDEPGDTGFGTIFTSDDRGIVYSKSLDRHLYTTTGGETDFTNVTSLRGVYITSVLSEDNSIQTMITFDQGGRWTHLRKPENSECDATAKNKNECSLHIHASYSISQKLNVPMAPLSEPNAVGIVIAHGSVGDAISVMVPDVYISDDGGYSWTKMLEGPHYYTILDSGGIIVAIEHSSRPINVIKFSTDEGQCWQTYTFTRDPIYFTGLASEPGARSMNISIWGFTESFLTSQWVSYTIDFKDILERNCEEKDYTIWLAHSTDPEDYEDGCILGYKEQFLRLRKSSMCQNGRDYVVTKQPSICLCSLEDFLCDFGYYRPENDSKCVEQPELKGHDLEFCLYGREEHLTTNGYRKIPGDKCQGGVNPVREVKDLKKKCTSNFLSPEKQNSKSNSVPIILAIVGLMLVTVVAGVLIVKKYVCGGRFLVHRYSVLQQHAEANGVDGVDALDTASHTNKSGYHDDSDEDLLE,binds,,
"FLAG-sortilin ECD+TMD (receptor, written as the form after propeptide cleavage; also called FLAG-sortilin ECD plus transmembrane domain) SAPDYKDDDDKGEDEECGRVRDFVAKLANNTHQHVFDDLRGSVSLSWVGDSTGVILVLTTFHVPLVIMTFGQSKLYRSEDYGKNFKDITDLINNTFIRTEFGMAIGPENSGKVVLTAEVSGGSRGGRIFRSSDFAKNFVQTDLPFHPLTQMMYSPQNSDYLLALSTENGLWVSKNFGGKWEEIHKAVCLAKWGSDNTIFFTTYANGSCKADLGALELWRTSDLGKSFKTIGVKIYSFGLGGRFLFASVMADKDTTRRIHVSTDQGDTWSMAQLPSVGQEQFYSILAANDDMVFMHVDEPGDTGFGTIFTSDDRGIVYSKSLDRHLYTTTGGETDFTNVTSLRGVYITSVLSEDNSIQTMITFDQGGRWTHLRKPENSECDATAKNKNECSLHIHASYSISQKLNVPMAPLSEPNAVGIVIAHGSVGDAISVMVPDVYISDDGGYSWTKMLEGPHYYTILDSGGIIVAIEHSSRPINVIKFSTDEGQCWQTYTFTRDPIYFTGLASEPGARSMNISIWGFTESFLTSQWVSYTIDFKDILERNCEEKDYTIWLAHSTDPEDYEDGCILGYKEQFLRLRKSSMCQNGRDYVVTKQPSICLCSLEDFLCDFGYYRPENDSKCVEQPELKGHDLEFCLYGREEHLTTNGYRKIPGDKCQGGVNPVREVKDLKKKCTSNFLSPEKQNSKSNSVPIILAIVGLMLVTVVAGVLIV",,binds,
